In general, Kd refers to the concentration at which binding is half-saturated. Low readings indicate tighter binding, high ones weaker binding.

Consider three molecules from US20240270828A1 (UAB RESEARCH FOUNDATION, published 2024).

Where two headings read alike, the source gives them in different places.

In experiment [1] the target is SARS-CoV-2 Wuhan-Hu-1 Spike protein (NR-53524 BEI Resources) (SARS-CoV-2, UniProt P0DTC2 16-1213). Description: cell-based or functional assay.
In experiment [2] the target is T1, OC43 S2 (40607-V08B1, Sino Biological) (HCoV-OC43, UniProt P36334 759-1297).
T1 construct: domain: S2
T1 sequence: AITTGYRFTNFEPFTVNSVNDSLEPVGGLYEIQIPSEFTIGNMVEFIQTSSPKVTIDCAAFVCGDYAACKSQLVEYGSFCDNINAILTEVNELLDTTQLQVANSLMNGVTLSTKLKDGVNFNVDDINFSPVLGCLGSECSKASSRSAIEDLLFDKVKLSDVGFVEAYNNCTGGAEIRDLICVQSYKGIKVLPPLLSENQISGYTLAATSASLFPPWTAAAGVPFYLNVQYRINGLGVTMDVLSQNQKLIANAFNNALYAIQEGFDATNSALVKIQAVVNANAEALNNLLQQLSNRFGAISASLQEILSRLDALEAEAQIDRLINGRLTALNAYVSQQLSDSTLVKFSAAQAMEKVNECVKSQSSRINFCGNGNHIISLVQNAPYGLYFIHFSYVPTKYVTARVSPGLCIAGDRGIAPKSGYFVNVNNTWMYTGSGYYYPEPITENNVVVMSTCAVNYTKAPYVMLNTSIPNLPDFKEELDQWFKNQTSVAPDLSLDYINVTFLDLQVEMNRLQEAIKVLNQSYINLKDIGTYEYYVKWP
Description: ELISA, mAb at 5, 0.5 and 0.05 ug/ml, without and with 8M urea; AUC heat map. A general note: ELISA stands for enzyme-linked immunosorbent assay.

Experiment [3] has as its target T2, MERS-CoV S2 (Sino Biological, 40070-V08) (MERS-CoV, UniProt K9N5Q8 726-1296).
T2 sequence: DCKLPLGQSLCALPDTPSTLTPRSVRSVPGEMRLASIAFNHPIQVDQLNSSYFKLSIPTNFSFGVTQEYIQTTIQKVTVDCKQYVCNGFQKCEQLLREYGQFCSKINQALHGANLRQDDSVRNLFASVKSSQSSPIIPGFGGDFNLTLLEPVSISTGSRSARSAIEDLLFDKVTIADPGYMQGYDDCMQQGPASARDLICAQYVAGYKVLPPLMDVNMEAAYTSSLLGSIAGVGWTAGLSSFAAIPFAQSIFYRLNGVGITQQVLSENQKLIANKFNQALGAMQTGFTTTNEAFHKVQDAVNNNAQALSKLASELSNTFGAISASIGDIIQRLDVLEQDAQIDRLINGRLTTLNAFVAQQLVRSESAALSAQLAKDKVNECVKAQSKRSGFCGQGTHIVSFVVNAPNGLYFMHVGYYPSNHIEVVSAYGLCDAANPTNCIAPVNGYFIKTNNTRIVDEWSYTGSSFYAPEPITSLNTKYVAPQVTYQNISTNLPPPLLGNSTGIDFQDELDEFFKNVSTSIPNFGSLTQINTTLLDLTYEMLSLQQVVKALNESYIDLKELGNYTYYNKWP
Described as above.

In experiment [4] the target is T3, HKU1 S2 (40021-V08B, Sino Biological) (HCoV-HKU1, UniProt Q5MQD0 761-1300).
T3 construct: domain: S2
T3 sequence: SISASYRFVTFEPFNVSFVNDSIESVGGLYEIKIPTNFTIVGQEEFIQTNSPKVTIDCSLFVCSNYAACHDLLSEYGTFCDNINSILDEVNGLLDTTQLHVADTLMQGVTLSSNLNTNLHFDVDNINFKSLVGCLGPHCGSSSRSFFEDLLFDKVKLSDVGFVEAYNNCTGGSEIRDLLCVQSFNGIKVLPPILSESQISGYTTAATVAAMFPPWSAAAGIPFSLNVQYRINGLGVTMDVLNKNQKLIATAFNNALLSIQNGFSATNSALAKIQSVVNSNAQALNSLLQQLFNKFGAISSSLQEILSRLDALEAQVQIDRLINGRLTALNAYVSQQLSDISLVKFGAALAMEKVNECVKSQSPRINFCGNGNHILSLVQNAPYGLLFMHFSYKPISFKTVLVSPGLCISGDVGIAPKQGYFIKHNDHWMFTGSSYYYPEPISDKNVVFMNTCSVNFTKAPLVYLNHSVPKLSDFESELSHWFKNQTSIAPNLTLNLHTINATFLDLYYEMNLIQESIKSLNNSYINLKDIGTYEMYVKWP
The description is as above.

The target in experiment [5] is T2, MERS-CoV S2 (Sino Biological, 40070-V08). The experiment can be described thus: BLI, mAb on anti-human Fc biosensor, MERS Spike protein in solution. In general terms: In BLI a coated tip is dipped into the sample, and binding shifts an interference pattern.
The target in experiment [6] is T4, SARS-CoV-2 S1+S2 (40589-V08B1, Sino Biological) (SARS-CoV-2, UniProt P0DTC2 16-1213). The experiment can be described thus: ELISA on coated protein, anti-human IgG-HRP; AUC of the OD.
For experiment [7], the target named is T5, SARS-CoV-2 S2 (40590-V08B, Sino Biological) (SARS-CoV-2, UniProt P0DTC2 686-1213).
T5 construct: domain: S2
The experiment is described as above.

Experiment [8] addresses T6, SARS-CoV-2 S1 (40591-V08H3, Sino Biological) (SARS-CoV-2, UniProt P0DTC2 16-685).
T6 construct: domain: S1
The description is as above.

Experiment [9] deals with T2, MERS-CoV S2 (Sino Biological, 40070-V08). Description: SPR/BLI, method not told apart.
The target of experiment [10] is T7, SARS-CoV Spike protein (SARS-CoV, UniProt P59594 14-1195). The experiment can be described thus: SPR/BLI, method not told apart.
The target in experiment [11] is T7, SARS-CoV Spike protein.
The target of experiment [12] is T4, SARS-CoV-2 S1+S2 (40589-V08B1, Sino …). Description: ELISA, hmAb at 10 and 1 ug/ml in duplicate; AUC.
Experiment [13] concerns the target T5, SARS-CoV-2 S2 (40590-V08B, Sino …). Description: ELISA, hmAb at 10 and 1 ug/ml in duplicate; AUC.
In experiment [14] the target is T6, SARS-CoV-2 S1 (40591-V08H3, Sino …). Description: ELISA, hmAb at 10 and 1 ug/ml in duplicate; AUC.
The target in experiment [15] is Spike of live SARS-CoV-2 WT virus (SARS-CoV-2, UniProt P0DTC2 14-1273). Description: cell-based or functional assay.
For experiment [16], the target named is T1, OC43 S2 (40607-V08B1, Sino Biological). The experiment can be described thus: ELISA titration of 1249A8 on coated Spike proteins, mean Abs at 450 nm.
Experiment [17] concerns the target T2, MERS-CoV S2 (Sino Biological, 40070-V08). Description: SPR, as far as told; target printed as MERS-CoV SH.

B1: 1213H7 (antibody, V domains shown)
VH: QVQLQQSGPEVKKPGTSVKVSCRASGFTFSSSAMQWVRQARGQRLEWIGWIVVGSGNANYAQKFQERVTITRDLSTRTAYMELSSLRSEDTAVYYCAAPYCSGGTCLDGFDIWGQGTMVTVSS
VL: EIVLTQSPGTLSLSPGERATLSCRASQSVSRNYLGWYQQKPGQAPRLLIYGASSRATGIPDRFSGSGSGTDFTLTISRLEPEDFAVYYCQQYGSSPWTFGQGTKVEIK
In the case of B1, the “ADCP activity, fold over isotype control” value in experiment [1] was approximately 8 fold. Besides, the binding result in experiment [2], in experiment [3] and in experiment [4] was “no binding (tested: 5 ug/ml)” throughout.

B2: 1249A8 (antibody, V domains shown)
VH: QVQLVQSGAEVKKPGASMKVSCKASGFTFTDYYMHWVRQAPRQGLEWMGLINPSGSGTAYAQNFQGRVTLARDTSTSTLYMEMGSLTSDDTAVYYCARMDSSGSYDHWGQGTLVTVSS
VL: ETTLTQSPGTLSLSPGDRATLSCRASQTIRISYLAWYQQKPGQAPRLLVYGPSIRATGIPDRFSARGSGTDFTLTISRLEPEDFAVYYCQHYGSSPPRYTFGQGTKLEIK
With B2, the Kd was found to be 0.56 nM in experiment [5], 0.58 nM in experiment [9], 3.2 nM in the experiment with SARS-CoV Spike protein [10] and 3.15 nM with SARS-CoV Spike protein [11]. Also, the “Binding AUC” value amounted to 24.8 in [6]; 28.2 in experiment [7]; 1.4 in experiment [8]; 24.8 in [12]; 28.2 in [13]; 1.4 in experiment [14]. Moreover, the binding result in [14] was “no binding (tested: 10 ug/ml)”; in [16] it was “binds”. In addition, the “Neutralization IC50 (µg/ml), Live Virus WT” value in experiment [15] came out at 1.77 µg/mL.

B3: S2P6 (antibody, V domains shown)
VH: EVQLVQSGAEVKKPGASVKVSCKASGYTFTSQYMHWVRQAPGQGLEWIGIINPSGVHTSYAQKFQGRVTLTRDTSTSTLYMELSSLRSEDTAVYYCARGSPKGAFDYWGQGTLVTVSS
VL: not shown
B3 had a Kd in experiment [17] of 8.5 nM.
